Assay [1] concerns the target T1, His-EcGlpG C104A+H254A (inactive mutant) (Escherichia coli, UniProt P09391 1-276, C104A | H254A).
T1 sequence (looked up): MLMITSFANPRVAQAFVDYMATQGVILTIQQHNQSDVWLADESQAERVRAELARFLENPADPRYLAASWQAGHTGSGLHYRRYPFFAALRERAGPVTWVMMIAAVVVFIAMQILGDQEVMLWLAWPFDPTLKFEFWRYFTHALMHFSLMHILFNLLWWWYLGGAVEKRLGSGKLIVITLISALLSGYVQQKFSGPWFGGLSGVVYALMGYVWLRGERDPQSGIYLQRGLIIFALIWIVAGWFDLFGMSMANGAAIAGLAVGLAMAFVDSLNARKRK
As to the kind of experiment: pull-down.

The target in assay [2] is HA-EcGlpG S201A+H254A (inactive mutant) (Escherichia coli, UniProt P09391 1-276, S201A | H254A). The experiment in a line: SEC.

The star is where a group is joined. FITC = O=C1OC2(c3ccc(O)cc3Oc3cc(O)ccc32)c2ccc(NC(=S)*)cc21; βAla = NCCC(=O)O Bounds are passed on as bounds.

B1: FITC-TatA (Providencia stuartii TatA residues 1-33 of 97) (peptide)
chain: {FITC-βAla}-MESTIATAAFGSPWQLIIIALLIILIFGTKKLR-NH2
SMILES: CC[C@H](C)[C@H](NC(=O)[C@H](CC(C)C)NC(=O)[C@@H](NC(=O)[C@@H](NC(=O)[C@H](CC(C)C)NC(=O)[C@H](CC(C)C)NC(=O)[C@H](C)NC(=O)[C@@H](NC(=O)[C@@H](NC(=O)[C@@H](NC(=O)[C@H](CC(C)C)NC(=O)[C@H](CCC(N)=O)NC(=O)[C@H](Cc1c[nH]c2ccccc12)NC(=O)[C@@H]1CCCN1C(=O)[C@H](CO)NC(=O)CNC(=O)[C@H](Cc1ccccc1)NC(=O)[C@H](C)NC(=O)[C@H](C)NC(=O)[C@@H](NC(=O)[C@H](C)NC(=O)[C@@H](NC(=O)[C@@H](NC(=O)[C@H](CO)NC(=O)[C@H](CCC(=O)O)NC(=O)[C@H](CCSC)NC(=O)CCNC(=S)Nc1ccc2c(c1)C(=O)OC21c2ccc(O)cc2Oc2cc(O)ccc21)[C@@H](C)O)[C@@H](C)CC)[C@@H](C)O)[C@@H](C)CC)[C@@H](C)CC)[C@@H](C)CC)[C@@H](C)CC)[C@@H](C)CC)C(=O)N[C@@H](Cc1ccccc1)C(=O)NCC(=O)N[C@H](C(=O)N[C@@H](CCCCN)C(=O)N[C@@H](CCCCN)C(=O)N[C@@H](CC(C)C)C(=O)N[C@@H](CCCNC(=N)N)C(N)=O)[C@@H](C)O
For the molecule B1, the results for the dissociation constant (Kd) in assay [1] and in assay [2] were not below 1000 µM and 191 ± 29.4 µM, respectively.

Values taken from PMC3917317 (Cell, 2013).
